From patent US20190092852A1 (Genentech, published 2019)
“And” between values parts separate entries of the source, which are not always exact repeats. Equal entries are not always repeated. One block for each binder: values may come before it.

Key:
[1] = biological target: T1, human IL-33 (R&D Systems, #3625-IL-010/CF) (human, UniProt O95760 112-270); assay: cell-based or functional assay
T1 sequence (looked up): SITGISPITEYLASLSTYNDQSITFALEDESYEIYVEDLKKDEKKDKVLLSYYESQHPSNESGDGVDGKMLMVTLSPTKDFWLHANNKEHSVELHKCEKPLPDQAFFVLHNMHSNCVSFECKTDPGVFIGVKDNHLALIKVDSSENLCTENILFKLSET

[2] = biological target: T1, human IL-33 (R&D Systems, …); assay: cell-based or functional assay; remark: listed apart in the source
[3] = biological target: T2, cyno IL-33 N-His (cynomolgus monkey); assay: SPR Biacore T200, 37 C
T2 chain: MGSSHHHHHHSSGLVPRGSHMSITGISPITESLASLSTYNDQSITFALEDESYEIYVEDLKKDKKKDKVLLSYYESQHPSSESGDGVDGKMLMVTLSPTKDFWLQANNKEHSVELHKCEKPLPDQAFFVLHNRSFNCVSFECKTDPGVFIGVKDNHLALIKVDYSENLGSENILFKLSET
Method: (§1) The binding kinetics of the anti-IL-33 antibody 10C12.38.H6.87Y.58I IgG4 and each anti-IL-33 antibody listed in Table 5 (RG1-RG20) to IL-33 were measured using surface plasmon resonance (SPR) on a BIACORE® T200 instrument (GE Healthcare). Anti-human Fc or anti-murine Fc (GE Healthcare, #BR-1008-39 or BR-1008-38, respectively) was immobilized on a CM5 sensor chip via amine-based coupling according to the manufacturer's protocol. Surfaces were used to capture monoclonal human IgG4 and monoclonal murine IgGs for kinetic studies. Antibody binding was measured to human IL-33 (R&D systems, #3625-IL-010/CF) and cyno IL-33 N-His (SEQ ID NO: 317) (Genentech, Inc.). A three-fold concentration series of cytokine with a range of 3.7 to 100 nM was used for the experiments. Sensograms for binding of IL-33 were recorded using an injection time of 4 min with a flow rate of 30 μl/minute with a running buffer of 0.01 M N-(2-Acetamido)iminodiacetic acid (ADA) pH 7.4, 0.15 M NaCl, 3 mM EDTA, and 0.05% TWEEN®-20. After injection, disassociation of the ligand from the antibody was monitored for 10 min in running buffer. The surface was regenerated in between cycles with an injection of 3 M magnesium chloride or Glycine-HCl pH 1.7. All binding experiments were performed at a temperature of 25′C and 37° C. After subtraction of a blank which contained running buffer only, sensograms observed for IL-33 binding to anti-IL-33 antibodies were analyzed using a 1:1 Langmuir binding model with software supplied by the manufacturer to calculate the kinetics and binding constants, including the dissociation constant (KD). Dissociative half-lives (t_{1/2}) were calculated from the kinetic rate constants. KD (M)=koff/kₒₙ and t_{1/2} (min)=ln(2)/(60*koff). […] In Tables 6-9, *IC indicates the result is inconclusive due to weak capture of antibody was observed, leading to poor binding data.

[4] = biological target: T1, human IL-33 (R&D Systems, …); assay: SPR Biacore T200, 37 C
Method: as §1

[5] = biological target: T3, biotinylated human IL-33 (human, UniProt O95760 112-270, biotin-labeled with EZ-LINK NHS-PEG4-Biotin); assay: competitive ELISA, biotin-huIL-33 to coated hST2-Fc
T3 construct: also called biotin-huIL-33
T3 sequence (looked up): T1 sequence (looked up)
Method: The ability of the anti-IL-33 antibody 10C12.38.H6.87Y.58I IgG4 and each anti-IL-33 antibody listed in Table 5 (RG1-RG20) to block either human IL-33 or cyno IL-33 binding to human ST2 receptor was tested in a competitive binding ELISA. Briefly, 1 μg/ml of recombinant human ST2-Fc chimera protein prepared in coating buffer (50 mM sodium carbonate, pH 9.6) was coated on a 384-well MAXISORP® plate (Nalgene Nunc International; Rochester, N.Y.) and incubated overnight at 4° C. On the next day, non-specific binding was blocked with PBS containing 0.5% (w/v) solution of bovine serum albumin (BSA). Fixed concentrations of biotinylated human or cyno IL-33 prepared in assay buffer (25 mM PBS, pH 7.2, 0.1% BSA, 0.05% TWEEN®-20) were mixed with an equal volume of serially-diluted anti-IL-33 antibodies or assay buffer alone and incubated for 1 h at room temperature. The final assay concentrations of biotinylated human IL-33 or cyno IL-33 were 20 pM and 45 pM, respectively, and the final assay concentration of each antibody ranged from 0-300 nM. The pre-mixed solutions were added to the ST2-Fc coated plate and incubated for 1 h at room temperature. The binding of biotinylated IL-33 to coated ST2-Fc was detected by the sequential addition of Streptavidin Poly-HRP80 (Fitzgerald; Buckinghamshire, UK) and 3,3′,5,5′-tetramethyl benzidine (TMB) Microwell Peroxidase Substrate System (KPL; Gaithersburg, Md.). The absorbance (450 nm) was recorded using a […] ASCENT® plate reader (Thermo Scientific; Rockford, Ill.). The binding activity (%) of biotin-IL-33 to ST2 in the presence of anti-IL-33 was plotted as a function of antibody concentration. The data generated were fitted to a four-parameter equation to determine IC₅₀ values for each antibody (FIGS. 25A and 25B) using Prism software (Graphpad Software; La Jolla, Calif.). The maximum blocking (%) of each antibody was calculated as the ratio of the reduction in signal measured in the presence of antibody relative to the difference between the signal with IL-33 alone and background measurements.

[6] = biological target: T1, human IL-33 (R&D Systems, …); assay: cell-based or functional assay; remark: listed apart in the source
[7] = biological target: T2, cyno IL-33 N-His; assay: SPR Biacore T200, 25 C
Method: as §1

[8] = biological target: T1, human IL-33 (R&D Systems, …); assay: SPR Biacore T200, 25 C
Method: as §1

[9] = biological target: T4, cyno IL-33 (construct not stated) (cynomolgus monkey, UniProt A0A2K5W3I1 112-269); assay: SPR Biacore
T4 construct: also called cynomolgus IL-33; cyno IL-33 (Genentech)
T4 sequence: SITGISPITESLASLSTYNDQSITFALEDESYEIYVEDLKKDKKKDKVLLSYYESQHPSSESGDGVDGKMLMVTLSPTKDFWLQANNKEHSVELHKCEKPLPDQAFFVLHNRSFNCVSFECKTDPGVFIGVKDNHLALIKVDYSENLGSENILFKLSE

[10] = biological target: T5, human IL-33 (Genentech, huIL33.his) (human, UniProt O95760 112-270); assay: SPR Biacore
T5 sequence (looked up): T1 sequence (looked up)

[11] = biological target: T6, human IL-33 (cell-based blocking assay of Example 2) (human, UniProt O95760 112-270); assay: cell-based or functional assay
T6 sequence (looked up): T1 sequence (looked up)

[12] = biological target: T7, cyno IL-33 (cell-based blocking assay of Example 2) (cynomolgus monkey, UniProt A0A2K5W3I1 95-269); assay: cell-based or functional assay
T7 sequence: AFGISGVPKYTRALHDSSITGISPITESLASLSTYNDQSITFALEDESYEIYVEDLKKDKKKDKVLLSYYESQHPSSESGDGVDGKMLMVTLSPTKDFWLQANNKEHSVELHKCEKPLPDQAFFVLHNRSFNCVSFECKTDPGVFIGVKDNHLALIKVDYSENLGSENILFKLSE

[13] = biological target: T6, human IL-33 (cell-based blocking assay …); assay: cell-based or functional assay; remark: listed apart in the source
[14] = biological target: T7, cyno IL-33 (cell-based blocking assay …); assay: cell-based or functional assay; remark: listed apart in the source

IC50; SEAP reporter (OD 620), HEK-BLUE IL-33/IL-1beta cells, 10 pM hIL-33 [1]: 9.5e-09 M | Ph-p38 MFI at 0.4 nM Ab (500 pM human IL-33, primary basophils) [2]: 90 MFI | Kd [3]: 8.33 nM | koff [3]: 0.00193 s⁻¹ | kon [3]: 232000 M⁻¹ s⁻¹ | t1/2 [3]: 6 min | Kd [4]: 2.37 nM | koff [4]: 0.000888 s⁻¹ | kon [4]: 374000 M⁻¹ s⁻¹ | t1/2 [4]: 13 min | IC50 [5]: 4.1 nM | Maximum Blocking [5]: 75% | Ph-p38 MFI at 2 nM Ab (500 pM human IL-33, primary basophils) [6]: 100 MFI | Kd [7]: 3.76 nM | koff [7]: 0.000458 s⁻¹ | kon [7]: 122000 M⁻¹ s⁻¹ | t1/2 [7]: 25 min | Kd [8]: 0.811 nM | koff [8]: 0.000184 s⁻¹ | kon [8]: 226000 M⁻¹ s⁻¹ | t1/2 [8]: 63 min
B1: H1M9559N (antibody, IgG1, V domains shown)
VH: QVQLVESGGGVVQPGRSLRLSCAASGFTFSSYGMHWVRQAPGKGLEWVAVIWYDGRNKYYTDSVKGRFTISRDNSKNTLYLQMDSLRAEDTAVYYCARERYISSYYGGFDPWGQGALVTVSS
VL: DIQMTQSPSSVSASVGDRVTITCRASQGISSWLAWYQQKPGKAPKVLIYAASSLQSGVPSRFSGSGSGTDFTLTISSLQPEDFATYYCQQANSFPFTFGPGTKLDIK
notes: also called RG1

Kd [9]: 0.037 nM | Kd [10]: 0.015 nM | IC50 (HEK-BLUE SEAP reporter, IL-33 blocking) [11]: 0.002 nM | IC90 (HEK-BLUE SEAP reporter, IL-33 blocking) [11]: 20.5 pM and 0.0031 µg/mL | IC50 (HEK-BLUE SEAP reporter, IL-33 blocking) [12]: 0.181 nM | IC90 (HEK-BLUE SEAP reporter, IL-33 blocking) [12]: 1220 pM and 0.183 µg/mL | Cell assay (hu) IC90 [13]: 0.004 µg/mL and 0.026 nM | Cell assay (cy) IC90 [14]: 0.185 µg/mL and 1.22 nM
B2: 10C12.38.H6.87Y.58I (antibody, V domains shown)
VH: EVQLVESGGGLVQPGGSLRLSCAASGFTFSSFSMSWVRQAPGKGLEWVATISGGKTFTDYVDSVKGRFTISRDDSKNTLYLQMNSLRAEDTAVYYCTRANYGNWFFEVWGQGTLVTVSS
VL: EIVLTQSPATLSLSPGERATLSCRASESVAKYGLSLLNWFQQKPGQPPRLLIFAASNRGSGIPARFSGSGSGTDFTLTISSLEPEDFAVYYCQQSKEVPFTFGQGTKVEIK

Kd [9]: 0.79 nM | Kd [10]: 0.06 nM | IC50 (HEK-BLUE SEAP reporter, IL-33 blocking) [11]: 0.0213 nM | IC90 (HEK-BLUE SEAP reporter, IL-33 blocking) [11]: 120 pM and 0.0181 µg/mL | IC50 (HEK-BLUE SEAP reporter, IL-33 blocking) [12]: > 10 nM | IC90 (HEK-BLUE SEAP reporter, IL-33 blocking) [12]: > 10000 pM and > 1.5 µg/mL | Cell assay (hu) IC90 [13]: 0.021 µg/mL and 0.14 nM | Cell assay (cy) IC90 [14]: > 1.5 µg/mL and > 9.9 nM
B3: 6C11 (antibody, V domains shown)
VH: EVKLEESGGGLVQPGGSMKLSCVASGFTFNKFWMNWVRQSPEKGLEWVAEIRLNSINYVKDYAESVKGRFTISRDDSKNSVYLQMNNLRAEDTGIYYCIRRNYGNWFFEIWGAGTTVTVSS
VL: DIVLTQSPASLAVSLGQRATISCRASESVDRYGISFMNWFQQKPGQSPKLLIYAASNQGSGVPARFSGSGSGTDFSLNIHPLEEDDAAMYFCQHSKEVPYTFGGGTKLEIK
notes: Murine hybridoma clone (Balb/C)
